In patent US20090175789A1 one finds reduction in the bond data, which are given here for one substance.

The target of the assay is human LDL (Low Density Lipoprotein) receptor (human) (UniProt P01130). Put plainly: competition by flow cytometry on A549 cells: unlabelled LDLs (varied, 16-fold excess) reduce the binding of 12G4 (30 µg/mL) to LDL-R.
Sequence of human LDL (Low Density Lipoprotein) receptor (human) (P01130 22-860): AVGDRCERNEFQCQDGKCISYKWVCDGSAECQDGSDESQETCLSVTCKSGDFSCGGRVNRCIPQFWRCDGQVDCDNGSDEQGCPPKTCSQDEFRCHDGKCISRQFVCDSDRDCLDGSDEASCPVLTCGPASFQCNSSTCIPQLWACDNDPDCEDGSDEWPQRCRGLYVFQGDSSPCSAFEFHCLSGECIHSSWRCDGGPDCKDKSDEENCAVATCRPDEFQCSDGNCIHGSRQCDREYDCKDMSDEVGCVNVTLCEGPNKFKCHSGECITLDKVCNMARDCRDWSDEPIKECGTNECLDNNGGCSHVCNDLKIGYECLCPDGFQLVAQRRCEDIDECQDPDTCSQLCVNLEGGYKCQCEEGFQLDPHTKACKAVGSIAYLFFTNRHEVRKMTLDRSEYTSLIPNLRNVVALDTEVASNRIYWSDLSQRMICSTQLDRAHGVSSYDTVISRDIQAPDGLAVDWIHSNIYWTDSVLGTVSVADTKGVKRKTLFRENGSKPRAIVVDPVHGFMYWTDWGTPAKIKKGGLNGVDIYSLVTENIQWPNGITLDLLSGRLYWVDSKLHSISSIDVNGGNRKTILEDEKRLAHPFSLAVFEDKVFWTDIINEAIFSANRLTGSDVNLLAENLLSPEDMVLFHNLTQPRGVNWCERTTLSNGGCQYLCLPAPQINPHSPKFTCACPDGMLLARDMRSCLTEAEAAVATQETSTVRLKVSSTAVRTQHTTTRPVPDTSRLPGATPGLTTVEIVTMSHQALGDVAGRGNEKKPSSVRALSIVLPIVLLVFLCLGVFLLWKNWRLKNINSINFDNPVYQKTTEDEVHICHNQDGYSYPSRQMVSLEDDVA

“LDLs (Low Density Lipoproteins) (from UniProt P04114 28-4563) (ligand)” returned a reduction in the bond of 60%.
